From patent US20140087995A1 (published 2014)
Numbered stars: 1 amine (or outer) side, 2 acyl side, 3 side chain; on linkers, the order of the positions; unused ones are H or OH. Bridge positions count the residues as written; N and C are the ends. Side chains are listed from the residue outwards. Ends that are not written are not given here. * marks the point of attachment. C20 diacid = O=C(O)CCCCCCCCCCCCCCCCCCC(=O)*; C18 diacid = O=C(O)CCCCCCCCCCCCCCCCC(=O)*; C16 diacid = O=C(O)CCCCCCCCCCCCCCC(=O)*; γGlu = O=C(O)[C@H](CCC(=O)[*:2])N[*:1]; C14 diacid = O=C(O)CCCCCCCCCCCCC(=O)*

T1: human calcitonin receptor (human, UniProt P30988 25-474)
T1 construct: whole, on cells; Membranes of BHK cells stably transfected with the human calcitonin receptor (Assay VII); also called hCTR; hCT
T1 sequence (looked up): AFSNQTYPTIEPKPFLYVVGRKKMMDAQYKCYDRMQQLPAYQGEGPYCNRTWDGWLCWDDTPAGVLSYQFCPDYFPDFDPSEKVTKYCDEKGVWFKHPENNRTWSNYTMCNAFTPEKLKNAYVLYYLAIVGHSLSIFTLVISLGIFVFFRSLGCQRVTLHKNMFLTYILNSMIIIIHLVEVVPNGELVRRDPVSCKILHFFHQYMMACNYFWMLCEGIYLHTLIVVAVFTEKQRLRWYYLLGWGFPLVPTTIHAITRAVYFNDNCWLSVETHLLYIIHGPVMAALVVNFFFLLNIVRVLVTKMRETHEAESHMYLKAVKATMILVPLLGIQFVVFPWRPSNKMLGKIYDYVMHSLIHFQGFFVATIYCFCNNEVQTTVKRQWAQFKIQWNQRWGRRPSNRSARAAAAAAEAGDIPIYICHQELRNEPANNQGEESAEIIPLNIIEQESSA


Tests used:
[1] = target: T1, human calcitonin receptor; experiment: ratio of IC50 at hCTR over IC50 at hAmylin-R (SPA competition assays)
Method: The resulting pellet was resuspended, homogenized and centrifuged (20.000 rpm, 15 min) in a buffer containing 20 mM Na-HEPES and 0.1 mM EDTA (pH 7.4, buffer 2). The resulting pellet was resuspended in buffer 2 and protein concentration was measured (BCA protein Assay, Pierce). The homogenate was kept cold during the whole procedure. The membranes were kept at −80° C. until use. The assay was performed in a 384 well Optiplate (PerkinElmer) in a total volume of 40 ul. Membranes were mixed with SPA beads. Final concentration of membranes 35 ng/μL final and SPA beads was 0.05 mg/well. Test-compounds were dissolved in DMSO and further diluted in assay buffer (50 mM Hepes, pH 7.4, 1 mM CaCl2, 5 mM MgCl₂, 0.1% OA and 0.02% Tween20). […] The final mixture was incubated with shaking at 400 rpm for 120 min at 25° C. prior to centrifugation (1500 rpm, 10 min). Samples were analyzed on TopCounter™ (Packard). The IC₅₀ was calculated using (one site binding competition analysis) GraphPad Prism5 as a measure of receptor affinity.
Membranes were prepared in the following way; the cells were rinsed with PBS and incubated with Versene for approximately 5 min before harvesting. The cells were flushed with PBS and the cell-suspension was centrifuged for 5 min at 1000 rpm. Cells were homogenized (Ultrathurrax) in a buffer containing 20 mM Na-HEPES and 10 mM EDTA (pH 7.4) and centrifuged at 20.000 rpm for 15 min. The resulting pellet was resuspended, homogenized and centrifuged (20.000 rpm, 15 min) in a buffer containing 20 mM Na-HEPES and 0.1 mM EDTA (pH 7.4, buffer 2). The resulting pellet was resuspended in buffer 2 and protein concentration was measured (BCA protein Assay, Pierce). The homogenate was kept cold during the whole procedure. The membranes were kept at −80° C. until use. Assay was performed in a 384 well Optiplate (PerkinElmer) in a total volume of 40 ul. Membranes were mixed with SPA beads.

[2] = target: T1, human calcitonin receptor; experiment: SPA competition against 125I-calcitonin, membranes of BHK cells with human calcitonin receptor (Assay VII)
Method: Membranes were prepared in the following way; the cells were rinsed with PBS and incubated with Versene for approximately 5 min before harvesting. The cells were flushed with PBS and the cell-suspension was centrifuged for 5 min at 1000 rpm. Cells were homogenized (Ultrathurrax) in a buffer containing 20 mM Na-HEPES and 10 mM EDTA (pH 7.4) and centrifuged at 20.000 rpm for 15 min. The resulting pellet was resuspended, homogenized and centrifuged (20.000 rpm, 15 min) in a buffer containing 20 mM Na-HEPES and 0.1 mM EDTA (pH 7.4, buffer 2). The resulting pellet was resuspended in buffer 2 and protein concentration was measured (BCA protein Assay, Pierce). The homogenate was kept cold during the whole procedure. The membranes were kept at −80° C. until use. Assay was performed in a 384 well Optiplate (PerkinElmer) in a total volume of 40 ul. Membranes were mixed with SPA beads. Final concentration of membranes 35 ng/μL final and Final concentration of SPA beads was 0.05 mg/well. Test-compounds were dissolved in DMSO and further diluted in assay buffer (50 mM Hepes, pH 7.4, 1 mM CaCl2, 5 mM MgCl₂, 0.1% OA and 0.02% Tween20). […] The final mixture was incubated for 120 min with shaking at 400 rpm at 25° C. prior to centrifugation (1500 rpm, 10 min). Samples were analyzed on TopCounter™ (Packard). The […] was calculated using (one site binding competition analysis) GraphPad Prism5 as a measure of receptor affinity.

| Binder | Ratio hCT/hAmylin binding [1] | IC50 [2] [nM] |
| --- | --- | --- |
| K([γGlu-γGlu-C20 diacid])CNTATCATQRLAEFLRHSSPNFGAIPSSTNVGPETY-NH2 (disulfide 2-7; N-terminus assumed; SMILES CC[C@H](C)[C@H](NC(=O)[C@H](C)NC(=O)CNC(=O)[C@H](Cc1ccccc1)NC(=O)[C@H](CC(N)=O)NC(=O)[C@@H]1CCCN1C(=O)[C@H](CO)NC(=O)[C@H](CO)NC(=O)[C@H](Cc1c[nH]cn1)NC(=O)[C@H](CCCNC(=N)N)NC(=O)[C@H](CC(C)C)NC(=O)[C@H](Cc1ccccc1)NC(=O)[C@H](CCC(=O)O)NC(=O)[C@H](C)NC(=O)[C@H](CC(C)C)NC(=O)[C@H](CCCNC(=N)N)NC(=O)[C@H](CCC(N)=O)NC(=O)[C@@H](NC(=O)[C@H](C)NC(=O)[C@@H]1CSSC[C@H](NC(=O)[C@@H](N)CCCCNC(=O)CC[C@H](NC(=O)CC[C@H](NC(=O)CCCCCCCCCCCCCCCCCCC(=O)O)C(=O)O)C(=O)O)C(=O)N[C@@H](CC(N)=O)C(=O)N[C@@H]([C@@H](C)O)C(=O)N[C@@H](C)C(=O)N[C@@H]([C@@H](C)O)C(=O)N1)[C@@H](C)O)C(=O)N1CCC[C@H]1C(=O)N[C@@H](CO)C(=O)N[C@@H](CO)C(=O)N[C@H](C(=O)N[C@@H](CC(N)=O)C(=O)N[C@H](C(=O)NCC(=O)N1CCC[C@H]1C(=O)N[C@@H](CCC(=O)O)C(=O)N[C@H](C(=O)N[C@@H](Cc1ccc(O)cc1)C(N)=O)[C@@H](C)O)C(C)C)[C@@H](C)O) | 17.6 | 2.13 |
| K([γGlu-C14 diacid])CNTATCATQRLANFLRHSSPNFGAIPSSTNVGHNTY-NH2 (disulfide 2-7; N-terminus assumed; SMILES CC[C@H](C)[C@H](NC(=O)[C@H](C)NC(=O)CNC(=O)[C@H](Cc1ccccc1)NC(=O)[C@H](CC(N)=O)NC(=O)[C@@H]1CCCN1C(=O)[C@H](CO)NC(=O)[C@H](CO)NC(=O)[C@H](Cc1c[nH]cn1)NC(=O)[C@H](CCCNC(=N)N)NC(=O)[C@H](CC(C)C)NC(=O)[C@H](Cc1ccccc1)NC(=O)[C@H](CC(N)=O)NC(=O)[C@H](C)NC(=O)[C@H](CC(C)C)NC(=O)[C@H](CCCNC(=N)N)NC(=O)[C@H](CCC(N)=O)NC(=O)[C@@H](NC(=O)[C@H](C)NC(=O)[C@@H]1CSSC[C@H](NC(=O)[C@@H](N)CCCCNC(=O)CC[C@H](NC(=O)CCCCCCCCCCCCC(=O)O)C(=O)O)C(=O)N[C@@H](CC(N)=O)C(=O)N[C@@H]([C@@H](C)O)C(=O)N[C@@H](C)C(=O)N[C@@H]([C@@H](C)O)C(=O)N1)[C@@H](C)O)C(=O)N1CCC[C@H]1C(=O)N[C@@H](CO)C(=O)N[C@@H](CO)C(=O)N[C@H](C(=O)N[C@@H](CC(N)=O)C(=O)N[C@H](C(=O)NCC(=O)N[C@@H](Cc1c[nH]cn1)C(=O)N[C@@H](CC(N)=O)C(=O)N[C@H](C(=O)N[C@@H](Cc1ccc(O)cc1)C(N)=O)[C@@H](C)O)C(C)C)[C@@H](C)O) [N^ε1-[(4S)-4-carboxy-4-(13-carboxytridecanoylamino)butanoyl]-[Arg17,Pro21,Pro27,His34]-h-amylin] | 23.5 | 24.3 |

Next, values leading:

| Ratio hCT/hAmylin binding [1] | IC50 [2] [nM] | Binder |
| --- | --- | --- |
| 59.4 | 22.7 | K([γGlu-C18 diacid])CNTATCATQRLANFLRHSSPNFGAIPSSTNVGHNTY-NH2 (disulfide 2-7; N-terminus assumed; SMILES CC[C@H](C)[C@H](NC(=O)[C@H](C)NC(=O)CNC(=O)[C@H](Cc1ccccc1)NC(=O)[C@H](CC(N)=O)NC(=O)[C@@H]1CCCN1C(=O)[C@H](CO)NC(=O)[C@H](CO)NC(=O)[C@H](Cc1c[nH]cn1)NC(=O)[C@H](CCCNC(=N)N)NC(=O)[C@H](CC(C)C)NC(=O)[C@H](Cc1ccccc1)NC(=O)[C@H](CC(N)=O)NC(=O)[C@H](C)NC(=O)[C@H](CC(C)C)NC(=O)[C@H](CCCNC(=N)N)NC(=O)[C@H](CCC(N)=O)NC(=O)[C@@H](NC(=O)[C@H](C)NC(=O)[C@@H]1CSSC[C@H](NC(=O)[C@@H](N)CCCCNC(=O)CC[C@H](NC(=O)CCCCCCCCCCCCCCCCC(=O)O)C(=O)O)C(=O)N[C@@H](CC(N)=O)C(=O)N[C@@H]([C@@H](C)O)C(=O)N[C@@H](C)C(=O)N[C@@H]([C@@H](C)O)C(=O)N1)[C@@H](C)O)C(=O)N1CCC[C@H]1C(=O)N[C@@H](CO)C(=O)N[C@@H](CO)C(=O)N[C@H](C(=O)N[C@@H](CC(N)=O)C(=O)N[C@H](C(=O)NCC(=O)N[C@@H](Cc1c[nH]cn1)C(=O)N[C@@H](CC(N)=O)C(=O)N[C@H](C(=O)N[C@@H](Cc1ccc(O)cc1)C(N)=O)[C@@H](C)O)C(C)C)[C@@H](C)O) [N^ε1-[(4S)-4-carboxy-4-(17-carboxyheptadecanoylamino)butanoyl]-[Arg17,Pro21,Pro27,His34]-h-amylin] |
| 18.5 | 10.8 | K([γGlu-C16 diacid])CNTATCATQRLANFLRHSSPNFGAIPSSTNVGHNTY-NH2 (disulfide 2-7; N-terminus assumed; SMILES CC[C@H](C)[C@H](NC(=O)[C@H](C)NC(=O)CNC(=O)[C@H](Cc1ccccc1)NC(=O)[C@H](CC(N)=O)NC(=O)[C@@H]1CCCN1C(=O)[C@H](CO)NC(=O)[C@H](CO)NC(=O)[C@H](Cc1c[nH]cn1)NC(=O)[C@H](CCCNC(=N)N)NC(=O)[C@H](CC(C)C)NC(=O)[C@H](Cc1ccccc1)NC(=O)[C@H](CC(N)=O)NC(=O)[C@H](C)NC(=O)[C@H](CC(C)C)NC(=O)[C@H](CCCNC(=N)N)NC(=O)[C@H](CCC(N)=O)NC(=O)[C@@H](NC(=O)[C@H](C)NC(=O)[C@@H]1CSSC[C@H](NC(=O)[C@@H](N)CCCCNC(=O)CC[C@H](NC(=O)CCCCCCCCCCCCCCC(=O)O)C(=O)O)C(=O)N[C@@H](CC(N)=O)C(=O)N[C@@H]([C@@H](C)O)C(=O)N[C@@H](C)C(=O)N[C@@H]([C@@H](C)O)C(=O)N1)[C@@H](C)O)C(=O)N1CCC[C@H]1C(=O)N[C@@H](CO)C(=O)N[C@@H](CO)C(=O)N[C@H](C(=O)N[C@@H](CC(N)=O)C(=O)N[C@H](C(=O)NCC(=O)N[C@@H](Cc1c[nH]cn1)C(=O)N[C@@H](CC(N)=O)C(=O)N[C@H](C(=O)N[C@@H](Cc1ccc(O)cc1)C(N)=O)[C@@H](C)O)C(C)C)[C@@H](C)O) [N^ε1-[(4S)-4-carboxy-4-(15-carboxypentadecanoylamino)butanoyl]-[Arg17,Pro21,Pro27,His34]-h-amylin] |
